Numbered stars: 1 amine (or outer) side, 2 acyl side, 3 side chain; on linkers, the order of the positions; unused ones are H or OH. Bridge positions count the residues as written; N and C are the ends. Square brackets hold non-standard residues; d marks the D form. Side chains are listed from the residue outwards. Ends that are not written are not given here. * marks the point of attachment. C18 diacid = O=C(O)CCCCCCCCCCCCCCCCC(=O)*; γGlu = O=C(O)[C@H](CCC(=O)[*:2])N[*:1]; Aib = CC(C)(N)C(=O)O
T1: human calcitonin receptor (human, UniProt P30988 25-474)
T1 sequence (looked up): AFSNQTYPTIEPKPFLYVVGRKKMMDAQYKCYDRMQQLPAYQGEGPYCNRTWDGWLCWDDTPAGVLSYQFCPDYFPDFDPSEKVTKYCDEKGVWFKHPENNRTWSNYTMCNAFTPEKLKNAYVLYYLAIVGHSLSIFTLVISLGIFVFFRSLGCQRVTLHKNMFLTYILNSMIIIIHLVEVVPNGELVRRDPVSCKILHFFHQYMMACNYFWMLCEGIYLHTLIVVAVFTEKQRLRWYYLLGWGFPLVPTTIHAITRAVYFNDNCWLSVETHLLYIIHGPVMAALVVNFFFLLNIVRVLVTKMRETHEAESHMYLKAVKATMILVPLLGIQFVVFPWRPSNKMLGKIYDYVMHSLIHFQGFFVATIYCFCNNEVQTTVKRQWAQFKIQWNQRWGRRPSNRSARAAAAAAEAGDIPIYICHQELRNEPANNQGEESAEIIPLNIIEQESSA

T2: human amylin receptor (calcitonin receptor co-expressed with receptor activity modifying protein, RAMP3) (human, UniProt P30988 25-474; O60896 24-148)
T2 sequence (looked up) 1: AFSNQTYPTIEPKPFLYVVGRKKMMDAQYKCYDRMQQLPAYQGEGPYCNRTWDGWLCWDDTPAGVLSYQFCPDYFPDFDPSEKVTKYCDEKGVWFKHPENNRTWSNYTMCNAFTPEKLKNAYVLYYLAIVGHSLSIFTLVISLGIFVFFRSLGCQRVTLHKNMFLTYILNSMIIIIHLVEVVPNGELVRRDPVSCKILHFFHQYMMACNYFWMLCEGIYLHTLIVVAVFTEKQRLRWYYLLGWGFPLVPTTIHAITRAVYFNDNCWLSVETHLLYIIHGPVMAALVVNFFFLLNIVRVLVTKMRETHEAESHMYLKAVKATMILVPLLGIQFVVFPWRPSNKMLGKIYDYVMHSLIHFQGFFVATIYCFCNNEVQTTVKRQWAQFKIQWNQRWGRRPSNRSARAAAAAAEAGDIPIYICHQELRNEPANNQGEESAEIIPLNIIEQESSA
T2 sequence (looked up) 2: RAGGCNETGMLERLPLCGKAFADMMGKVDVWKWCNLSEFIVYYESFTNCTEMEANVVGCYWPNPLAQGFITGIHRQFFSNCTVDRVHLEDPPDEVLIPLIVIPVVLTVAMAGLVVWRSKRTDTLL


Key:
[1] = target: T1, human calcitonin receptor; experiment: cell-based or functional assay
[2] = target: T2, human amylin receptor (calcitonin …); experiment: cell-based or functional assay

Row | Binder | EC50 (cAMP production) [1] [nM] | EC50 (cAMP production) [2] [nM] | Ratio (EC50 hCTR / EC50 hAMYR3) [2]
1 | K([γGlu-C18 diacid])KCNTATCATQRLANFLVHSS[Aib]NFGPILPPTNVGSN[Aib]Y-NH2 (disulfide 3-8; N-terminus assumed; SMILES CC[C@H](C)[C@H](NC(=O)[C@@H]1CCCN1C(=O)CNC(=O)[C@H](Cc1ccccc1)NC(=O)[C@H](CC(N)=O)NC(=O)C(C)(C)NC(=O)[C@H](CO)NC(=O)[C@H](CO)NC(=O)[C@H](Cc1c[nH]cn1)NC(=O)[C@@H](NC(=O)[C@H](CC(C)C)NC(=O)[C@H](Cc1ccccc1)NC(=O)[C@H](CC(N)=O)NC(=O)[C@H](C)NC(=O)[C@H](CC(C)C)NC(=O)[C@H](CCCNC(=N)N)NC(=O)[C@H](CCC(N)=O)NC(=O)[C@@H](NC(=O)[C@H](C)NC(=O)[C@@H]1CSSC[C@H](NC(=O)[C@H](CCCCN)NC(=O)[C@@H](N)CCCCNC(=O)CC[C@H](NC(=O)CCCCCCCCCCCCCCCCC(=O)O)C(=O)O)C(=O)N[C@@H](CC(N)=O)C(=O)N[C@@H]([C@@H](C)O)C(=O)N[C@@H](C)C(=O)N[C@@H]([C@@H](C)O)C(=O)N1)[C@@H](C)O)C(C)C)C(=O)N[C@@H](CC(C)C)C(=O)N1CCC[C@H]1C(=O)N1CCC[C@H]1C(=O)N[C@H](C(=O)N[C@@H](CC(N)=O)C(=O)N[C@H](C(=O)NCC(=O)N[C@@H](CO)C(=O)N[C@@H](CC(N)=O)C(=O)NC(C)(C)C(=O)N[C@@H](Cc1ccc(O)cc1)C(N)=O)C(C)C)[C@@H](C)O) [Peptide 83 (SEQ ID NO: 83)] | 6.34 | 0.599 | 11
2 | K([γGlu-C18 diacid])KCNTATCATQRLANFLVHSS[Aib]NFGPILPPTNV[Aib]SNTY-NH2 (disulfide 3-8; N-terminus assumed; SMILES CC[C@H](C)[C@H](NC(=O)[C@@H]1CCCN1C(=O)CNC(=O)[C@H](Cc1ccccc1)NC(=O)[C@H](CC(N)=O)NC(=O)C(C)(C)NC(=O)[C@H](CO)NC(=O)[C@H](CO)NC(=O)[C@H](Cc1c[nH]cn1)NC(=O)[C@@H](NC(=O)[C@H](CC(C)C)NC(=O)[C@H](Cc1ccccc1)NC(=O)[C@H](CC(N)=O)NC(=O)[C@H](C)NC(=O)[C@H](CC(C)C)NC(=O)[C@H](CCCNC(=N)N)NC(=O)[C@H](CCC(N)=O)NC(=O)[C@@H](NC(=O)[C@H](C)NC(=O)[C@@H]1CSSC[C@H](NC(=O)[C@H](CCCCN)NC(=O)[C@@H](N)CCCCNC(=O)CC[C@H](NC(=O)CCCCCCCCCCCCCCCCC(=O)O)C(=O)O)C(=O)N[C@@H](CC(N)=O)C(=O)N[C@@H]([C@@H](C)O)C(=O)N[C@@H](C)C(=O)N[C@@H]([C@@H](C)O)C(=O)N1)[C@@H](C)O)C(C)C)C(=O)N[C@@H](CC(C)C)C(=O)N1CCC[C@H]1C(=O)N1CCC[C@H]1C(=O)N[C@H](C(=O)N[C@@H](CC(N)=O)C(=O)N[C@H](C(=O)NC(C)(C)C(=O)N[C@@H](CO)C(=O)N[C@@H](CC(N)=O)C(=O)N[C@H](C(=O)N[C@@H](Cc1ccc(O)cc1)C(N)=O)[C@@H](C)O)C(C)C)[C@@H](C)O) [Peptide 81 (SEQ ID NO: 81)] | 2.76 | 0.404 | 7
3 | K([γGlu-C18 diacid])KCNTATCATQRLANFLVHSS[Aib]NFGPILPPTNVGS[Aib]TY-NH2 (disulfide 3-8; N-terminus assumed; SMILES CC[C@H](C)[C@H](NC(=O)[C@@H]1CCCN1C(=O)CNC(=O)[C@H](Cc1ccccc1)NC(=O)[C@H](CC(N)=O)NC(=O)C(C)(C)NC(=O)[C@H](CO)NC(=O)[C@H](CO)NC(=O)[C@H](Cc1c[nH]cn1)NC(=O)[C@@H](NC(=O)[C@H](CC(C)C)NC(=O)[C@H](Cc1ccccc1)NC(=O)[C@H](CC(N)=O)NC(=O)[C@H](C)NC(=O)[C@H](CC(C)C)NC(=O)[C@H](CCCNC(=N)N)NC(=O)[C@H](CCC(N)=O)NC(=O)[C@@H](NC(=O)[C@H](C)NC(=O)[C@@H]1CSSC[C@H](NC(=O)[C@H](CCCCN)NC(=O)[C@@H](N)CCCCNC(=O)CC[C@H](NC(=O)CCCCCCCCCCCCCCCCC(=O)O)C(=O)O)C(=O)N[C@@H](CC(N)=O)C(=O)N[C@@H]([C@@H](C)O)C(=O)N[C@@H](C)C(=O)N[C@@H]([C@@H](C)O)C(=O)N1)[C@@H](C)O)C(C)C)C(=O)N[C@@H](CC(C)C)C(=O)N1CCC[C@H]1C(=O)N1CCC[C@H]1C(=O)N[C@H](C(=O)N[C@@H](CC(N)=O)C(=O)N[C@H](C(=O)NCC(=O)N[C@@H](CO)C(=O)NC(C)(C)C(=O)N[C@H](C(=O)N[C@@H](Cc1ccc(O)cc1)C(N)=O)[C@@H](C)O)C(C)C)[C@@H](C)O) [Peptide 82 (SEQ ID NO: 82)] | 4.28 | 0.514 | 8
4 | K([γGlu-C18 diacid])KCNTATCATQRLANFLVHSS[Aib]NFGPILPPTNVG[Aib]NTY-NH2 (disulfide 3-8; N-terminus assumed; SMILES CC[C@H](C)[C@H](NC(=O)[C@@H]1CCCN1C(=O)CNC(=O)[C@H](Cc1ccccc1)NC(=O)[C@H](CC(N)=O)NC(=O)C(C)(C)NC(=O)[C@H](CO)NC(=O)[C@H](CO)NC(=O)[C@H](Cc1c[nH]cn1)NC(=O)[C@@H](NC(=O)[C@H](CC(C)C)NC(=O)[C@H](Cc1ccccc1)NC(=O)[C@H](CC(N)=O)NC(=O)[C@H](C)NC(=O)[C@H](CC(C)C)NC(=O)[C@H](CCCNC(=N)N)NC(=O)[C@H](CCC(N)=O)NC(=O)[C@@H](NC(=O)[C@H](C)NC(=O)[C@@H]1CSSC[C@H](NC(=O)[C@H](CCCCN)NC(=O)[C@@H](N)CCCCNC(=O)CC[C@H](NC(=O)CCCCCCCCCCCCCCCCC(=O)O)C(=O)O)C(=O)N[C@@H](CC(N)=O)C(=O)N[C@@H]([C@@H](C)O)C(=O)N[C@@H](C)C(=O)N[C@@H]([C@@H](C)O)C(=O)N1)[C@@H](C)O)C(C)C)C(=O)N[C@@H](CC(C)C)C(=O)N1CCC[C@H]1C(=O)N1CCC[C@H]1C(=O)N[C@H](C(=O)N[C@@H](CC(N)=O)C(=O)N[C@H](C(=O)NCC(=O)NC(C)(C)C(=O)N[C@@H](CC(N)=O)C(=O)N[C@H](C(=O)N[C@@H](Cc1ccc(O)cc1)C(N)=O)[C@@H](C)O)C(C)C)[C@@H](C)O) [Peptide 84 (SEQ ID NO: 84)] | 0.401 | 0.118 | 3
5 | K([γGlu-C18 diacid])KCNTATCATQRLANFLVHSS[Aib]NFGPILPPT[Aib]VGSNTY-NH2 (disulfide 3-8; N-terminus assumed; SMILES CC[C@H](C)[C@H](NC(=O)[C@@H]1CCCN1C(=O)CNC(=O)[C@H](Cc1ccccc1)NC(=O)[C@H](CC(N)=O)NC(=O)C(C)(C)NC(=O)[C@H](CO)NC(=O)[C@H](CO)NC(=O)[C@H](Cc1c[nH]cn1)NC(=O)[C@@H](NC(=O)[C@H](CC(C)C)NC(=O)[C@H](Cc1ccccc1)NC(=O)[C@H](CC(N)=O)NC(=O)[C@H](C)NC(=O)[C@H](CC(C)C)NC(=O)[C@H](CCCNC(=N)N)NC(=O)[C@H](CCC(N)=O)NC(=O)[C@@H](NC(=O)[C@H](C)NC(=O)[C@@H]1CSSC[C@H](NC(=O)[C@H](CCCCN)NC(=O)[C@@H](N)CCCCNC(=O)CC[C@H](NC(=O)CCCCCCCCCCCCCCCCC(=O)O)C(=O)O)C(=O)N[C@@H](CC(N)=O)C(=O)N[C@@H]([C@@H](C)O)C(=O)N[C@@H](C)C(=O)N[C@@H]([C@@H](C)O)C(=O)N1)[C@@H](C)O)C(C)C)C(=O)N[C@@H](CC(C)C)C(=O)N1CCC[C@H]1C(=O)N1CCC[C@H]1C(=O)N[C@H](C(=O)NC(C)(C)C(=O)N[C@H](C(=O)NCC(=O)N[C@@H](CO)C(=O)N[C@@H](CC(N)=O)C(=O)N[C@H](C(=O)N[C@@H](Cc1ccc(O)cc1)C(N)=O)[C@@H](C)O)C(C)C)[C@@H](C)O) [Peptide 80 (SEQ ID NO: 80)] | 2.97 | 0.407 | 7
6 | K([γGlu-C18 diacid])KCNTATCATQRLANFLVHSS[Aib]NFGPILPPTNVGSNT[Aib]-NH2 (disulfide 3-8; N-terminus assumed; SMILES CC[C@H](C)[C@H](NC(=O)[C@@H]1CCCN1C(=O)CNC(=O)[C@H](Cc1ccccc1)NC(=O)[C@H](CC(N)=O)NC(=O)C(C)(C)NC(=O)[C@H](CO)NC(=O)[C@H](CO)NC(=O)[C@H](Cc1c[nH]cn1)NC(=O)[C@@H](NC(=O)[C@H](CC(C)C)NC(=O)[C@H](Cc1ccccc1)NC(=O)[C@H](CC(N)=O)NC(=O)[C@H](C)NC(=O)[C@H](CC(C)C)NC(=O)[C@H](CCCNC(=N)N)NC(=O)[C@H](CCC(N)=O)NC(=O)[C@@H](NC(=O)[C@H](C)NC(=O)[C@@H]1CSSC[C@H](NC(=O)[C@H](CCCCN)NC(=O)[C@@H](N)CCCCNC(=O)CC[C@H](NC(=O)CCCCCCCCCCCCCCCCC(=O)O)C(=O)O)C(=O)N[C@@H](CC(N)=O)C(=O)N[C@@H]([C@@H](C)O)C(=O)N[C@@H](C)C(=O)N[C@@H]([C@@H](C)O)C(=O)N1)[C@@H](C)O)C(C)C)C(=O)N[C@@H](CC(C)C)C(=O)N1CCC[C@H]1C(=O)N1CCC[C@H]1C(=O)N[C@H](C(=O)N[C@@H](CC(N)=O)C(=O)N[C@H](C(=O)NCC(=O)N[C@@H](CO)C(=O)N[C@@H](CC(N)=O)C(=O)N[C@H](C(=O)NC(C)(C)C(N)=O)[C@@H](C)O)C(C)C)[C@@H](C)O) [Peptide 85 (SEQ ID NO: 85)] | 3.1 | 0.806 | 4

From patent US20220204580A1 (AstraZeneca / MedImmune, published 2022)
